Results on eleven substances are retold here after paper doi:10.1101/2022.09.07.507024.

The assay concerns the target FMAL-labeled F-actin (rabbit skeletal muscle) (rabbit) (UniProt P68135). In words: FRET or BRET.
Regarding “TMR-C0-C2^(Cys249, L349R), PKA-phosphorylated (domain or fragment)”, the change of FRET against WT at 2.5 uM C0-C2 (direction not told) was determined as 31%. “TMR-C0-C2^(Cys249, L349R), unphosphorylated (domain or fragment)” showed a change of FRET against WT at 2.5 uM C0-C2 (direction not told) of 10%. “TMR-C0-C2^(Cys249, L352P), PKA-phosphorylated (domain or fragment)” yielded an increase of FRET over WT at 2.5 uM C0-C2 of 74 to 160%. For the substance “TMR-C0-C2^(P330C, L349R), PKA-phosphorylated (domain or fragment)”, the increase of FRET over WT at 2.5 uM C0-C2 amounted to 166%. “TMR-C0-C2^(P330C, L349R), unphosphorylated (domain or fragment)”: the increase of FRET over WT at 2.5 uM C0-C2 was determined as 89%. “TMR-C0-C2^(P330C, L352P), PKA-phosphorylated (domain or fragment)” gave an increase of FRET over WT at 2.5 uM C0-C2 of 74 to 160%. “TMR-C0-C2^(P330C, R282W), PKA-phosphorylated (domain or fragment)” registered an increase of FRET over WT at 2.5 uM C0-C2 of 105%. Still for that read-out and setting: next, “TMR-C0-C2^(P330C, T59A), unphosphorylated (domain or fragment)”: 21%. “TMR-C0-C2^(S85C, E334K), PKA-phosphorylated (domain or fragment)” gave an FRET as percent of WT at 2.5 uM C0-C2 (% of wild type FRET) of 45.

With “TMR-C0-C2^(S85C, L349R), PKA-phosphorylated (domain or fragment)”, the change of FRET against WT at 2.5 uM C0-C2 (direction not told) amounted to 4%. In turn, “TMR-C0-C2^(S85C, L349R), unphosphorylated (domain or fragment)” gave a change of FRET against WT at 2.5 uM C0-C2 (direction not told) of 22%.
